According to patent publication US20230127047A1, “SELECTIVE GIP RECEPTOR AGONISTS COMPRISING A CHELATING MOIETY FOR IMAGING AND THERAPY PURPOSES” (ANTAROS MEDICAL AB, priority 2020, published 2023):
Read-outs that look alike come from different tables or passages of the source. Where a SMILES comes first, the peptide text is derived from it. Where no end group is shown, it is not given here. [ ]: non-standard residue; d: D form. The star is where a group is joined. DO3A(CH2CH2SO2CH2CH2) = O=C(O)CN1CCN(CCS(=O)(=O)CC*)CCN(CC(=O)O)CCN(CC(=O)O)CC1; DOTA = O=C(O)CN1CCN(CC(=O)O)CCN(CC(=O)*)CCN(CC(=O)O)CC1; Aib = CC(C)(N)C(=O)O

What was measured:
[1] = target: T1, glucagon receptor (hGCGR) (Homo sapiens, UniProt P47871); assay: cAMP response (HTRF) in PSC-HEK-293 cells expressing human glucagon receptor; format: cell-based
T1 construct: expressed in transfected cells
T1 sequence (P47871 26-477): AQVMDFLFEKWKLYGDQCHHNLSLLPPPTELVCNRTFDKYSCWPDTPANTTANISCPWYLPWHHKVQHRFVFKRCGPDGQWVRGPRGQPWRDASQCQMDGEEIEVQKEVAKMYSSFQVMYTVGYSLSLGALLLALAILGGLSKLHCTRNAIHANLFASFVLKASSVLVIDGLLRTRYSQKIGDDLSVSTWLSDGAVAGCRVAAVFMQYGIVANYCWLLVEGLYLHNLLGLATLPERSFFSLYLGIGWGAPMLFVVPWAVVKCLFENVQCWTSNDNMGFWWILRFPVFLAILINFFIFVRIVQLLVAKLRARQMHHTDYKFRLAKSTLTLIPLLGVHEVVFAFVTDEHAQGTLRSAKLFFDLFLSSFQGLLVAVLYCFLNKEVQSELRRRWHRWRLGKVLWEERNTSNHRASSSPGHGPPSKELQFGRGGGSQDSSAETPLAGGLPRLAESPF
Description: (§1) Each vial contained 1.8 ml cells. The vials were slowly frozen to −80° C. in isopropanol, and then transferred in liquid nitrogen for storage.
(§2) Prior to their use, frozen cells were thawed quickly at 37° C. and washed (5 min at 900 rpm) with 20 ml cell buffer (lx HBSS; 20 mM HEPES, with 0.1% BSA).
(§3) For measurement of cAMP generation, 5 μl cells (final 5000 cells/well) and 5 μl of test compound were added to a 384-well plate, followed by incubation for 30 min at room temperature.
(§4) The cAMP generated was determined using a kit from Cisbio Corp. based on HTRF (Homogenous Time Resolved Fluorescence). The cAMP assay was performed according to manufacturer's instructions (Cisbio).
(§5) cAMP content of cells was determined using a kit from Cisbio Corp. (cat. no. 62AM4PEC) based on HTRF (Homogenous Time Resolved Fluorescence). […] Medium was then removed and cells washed with PBS lacking calcium and magnesium, followed by proteinase treatment with accutase (Sigma-Aldrich cat. no. A6964). Detached cells were washed and resuspended in assay buffer (1×HBSS; 20 mM HEPES, 0.1% BSA, 2 mM IBMX) and cellular density determined. They were then diluted to 400000 cells/ml and 25 μl-aliquots dispensed into the wells of 96-well plates. For measurement, 25 μl of test compound in assay buffer was added to the wells, followed by incubation for 30 minutes at room temperature.

[2] = target: human GLP-1 receptor (hGLP-1R) (Homo sapiens, UniProt P43220); assay: cAMP response (HTRF) in PSC-HEK-293 cells expressing human GLP-1 receptor; format: cell-based
human GLP-1 receptor (hGLP-1R), sequence (P43220 24-463): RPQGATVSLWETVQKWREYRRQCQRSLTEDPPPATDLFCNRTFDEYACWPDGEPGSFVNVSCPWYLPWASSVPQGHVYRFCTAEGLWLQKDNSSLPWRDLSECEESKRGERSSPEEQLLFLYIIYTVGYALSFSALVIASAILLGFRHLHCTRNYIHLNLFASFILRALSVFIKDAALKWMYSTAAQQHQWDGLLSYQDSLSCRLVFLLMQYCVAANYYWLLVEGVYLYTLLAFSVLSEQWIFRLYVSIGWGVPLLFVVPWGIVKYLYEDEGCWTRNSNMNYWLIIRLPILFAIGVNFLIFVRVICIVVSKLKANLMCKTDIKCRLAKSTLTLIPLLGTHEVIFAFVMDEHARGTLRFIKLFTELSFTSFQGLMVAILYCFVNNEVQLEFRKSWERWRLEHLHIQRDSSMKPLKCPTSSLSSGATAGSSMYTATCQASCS
Description: as §1, §2, §3, §4, §5

[3] = target: T2, human GIP receptor (hGIPR) (Homo sapiens, UniProt P48546); assay: cAMP response (HTRF) in PSC-HEK-293 cells expressing human GIP receptor; format: cell-based; details: from EC50 values of Table 5
T2 sequence (P48546 22-466): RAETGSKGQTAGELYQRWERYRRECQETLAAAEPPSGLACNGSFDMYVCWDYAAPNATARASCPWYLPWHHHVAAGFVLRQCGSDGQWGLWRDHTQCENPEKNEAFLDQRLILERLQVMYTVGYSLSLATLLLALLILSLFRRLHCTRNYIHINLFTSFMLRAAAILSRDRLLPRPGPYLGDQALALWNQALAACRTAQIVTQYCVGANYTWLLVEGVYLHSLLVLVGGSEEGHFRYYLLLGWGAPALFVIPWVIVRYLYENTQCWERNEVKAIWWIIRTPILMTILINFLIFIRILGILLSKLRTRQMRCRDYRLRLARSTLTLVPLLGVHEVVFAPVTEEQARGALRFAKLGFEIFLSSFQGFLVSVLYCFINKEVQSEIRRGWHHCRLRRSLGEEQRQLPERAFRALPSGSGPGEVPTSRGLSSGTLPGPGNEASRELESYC
Description: as §1, §2, §3, §4, §5

[4] = Plasma stability testing (radio-HPLC) in NHP plasma; format: in vitro ADME, cynomolgus monkey; details: for Intact peptide (%): NHP plasma, 37° C.
human GIP receptor [5] = target: T3, human GIP receptor (human, UniProt P48546 22-466); assay: cell-based or functional assay
T3 sequence (looked up): T2 sequence (P48546 22-466)

human GIP receptor [6] = target: T3, human GIP receptor; assay: [125I]GIP displacement, SPA beads with hGIPR HEK-293 membranes
human GLP-1 receptor = human GLP-1 receptor (human, UniProt P43220 24-463); assay: cell-based or functional assay
human glucagon receptor = human glucagon receptor (human, UniProt P47871 26-477); assay: cell-based or functional assay
human glucagon receptor, sequence (P47871 26-477): as the sequence (P47871 26-477) above

human GIP receptor [7] = target: T3, human GIP receptor; assay: [125I]GIP displacement IC50, reference GIP(1-30) (SEQ ID NO: 2)
human GIP receptor [8] = target: T3, human GIP receptor; assay: [125I]GIP displacement IC50, reference native GIP (SEQ ID NO: 1)

Molecule: CC[C@H](C)[C@H](NC(=O)[C@H](CO)NC(=O)[C@H](Cc1ccc(O)cc1)NC(=O)[C@H](CC(=O)O)NC(=O)[C@H](CO)NC(=O)[C@@H](NC(=O)[C@H](Cc1ccccc1)NC(=O)[C@@H](NC(=O)CNC(=O)[C@H](CCC(=O)O)NC(=O)[C@H](C)NC(=O)[C@@H](N)Cc1ccc(O)cc1)[C@@H](C)O)[C@@H](C)CC)C(=O)N[C@@H](C)C(=O)N[C@@H](CCSC)C(=O)N[C@@H](CC(=O)O)C(=O)N[C@@H](CCCCN)C(=O)N[C@H](C(=O)N[C@@H](Cc1c[nH]cn1)C(=O)N[C@@H](CCC(N)=O)C(=O)N[C@@H](CCC(N)=O)C(=O)N[C@@H](CC(=O)O)C(=O)N[C@@H](Cc1ccccc1)C(=O)N[C@H](C(=O)N[C@@H](CC(N)=O)C(=O)N[C@@H](Cc1c[nH]c2ccccc12)C(=O)N[C@@H](CC(C)C)C(=O)N[C@@H](CC(C)C)C(=O)N[C@@H](C)C(=O)N[C@@H](CCC(N)=O)C(=O)N[C@@H](CCCCN)C(=O)NCC(=O)N[C@@H](CCCCN)C(=O)N[C@@H](CCCCN)C(=O)N[C@@H](CC(N)=O)C(=O)N[C@@H](CC(=O)O)C(=O)N[C@@H](Cc1c[nH]c2ccccc12)C(=O)N[C@@H](CCCCN)C(=O)N[C@@H](Cc1c[nH]cn1)C(=O)N[C@@H](CC(N)=O)C(=O)N[C@H](C(=O)N[C@H](C(=O)N[C@@H](CCC(N)=O)C(=O)O)[C@@H](C)O)[C@@H](C)CC)C(C)C)[C@@H](C)CC [SEQ ID NO: 1, YAEGTFISDYSIAMDKIHQQDFVNWLLAQKGKKNDWKHNITQ-OH]
- EC50 [1]: > 10 nM
- EC50 ([1]; read-out: EC50 hGCGR, 384-well format): > 10 nM

Molecule: CC[C@H](C)[C@H](NC(=O)[C@H](CO)NC(=O)[C@H](Cc1ccc(O)cc1)NC(=O)[C@H](CC(=O)O)NC(=O)[C@H](CO)NC(=O)[C@@H](NC(=O)[C@H](Cc1ccccc1)NC(=O)[C@@H](NC(=O)CNC(=O)[C@H](CCC(=O)O)NC(=O)[C@H](C)NC(=O)[C@@H](N)Cc1ccc(O)cc1)[C@@H](C)O)[C@@H](C)CC)C(=O)N[C@@H](C)C(=O)N[C@@H](CCSC)C(=O)N[C@@H](CC(=O)O)C(=O)N[C@@H](CCCCN)C(=O)N[C@H](C(=O)N[C@@H](Cc1c[nH]cn1)C(=O)N[C@@H](CCC(N)=O)C(=O)N[C@@H](CCC(N)=O)C(=O)N[C@@H](CC(=O)O)C(=O)N[C@@H](Cc1ccccc1)C(=O)N[C@H](C(=O)N[C@@H](CC(N)=O)C(=O)N[C@@H](Cc1c[nH]c2ccccc12)C(=O)N[C@@H](CC(C)C)C(=O)N[C@@H](CC(C)C)C(=O)N[C@@H](C)C(=O)N[C@@H](CCC(N)=O)C(=O)N[C@@H](CCCCN)C(N)=O)C(C)C)[C@@H](C)CC [SEQ ID NO: 2, YAEGTFISDYSIAMDKIHQQDFVNWLLAQK-NH2]
- EC50 [1]: > 10 nM
- EC50 [2]: > 10 nM

Molecule: CC[C@H](C)[C@H](NC(=O)[C@H](CO)NC(=O)[C@H](CC(C)C)NC(=O)[C@H](CC(=O)O)NC(=O)[C@H](CO)NC(=O)[C@@H](NC(=O)[C@H](Cc1ccccc1)NC(=O)[C@@H](NC(=O)CNC(=O)[C@H](CCC(=O)O)NC(=O)C(C)(C)NC(=O)[C@@H](N)Cc1ccc(O)cc1)[C@@H](C)O)[C@@H](C)CC)C(=O)N[C@@H](C)C(=O)N[C@@H](CC(C)C)C(=O)N[C@@H](CC(=O)O)C(=O)N[C@@H](CCCNC(=N)N)C(=O)N[C@H](C(=O)N[C@@H](Cc1c[nH]cn1)C(=O)N[C@@H](CCC(N)=O)C(=O)N[C@@H](CCC(=O)O)C(=O)N[C@@H](CCC(=O)O)C(=O)N[C@@H](Cc1ccccc1)C(=O)N[C@H](C(=O)N[C@@H](CCC(N)=O)C(=O)N[C@@H](Cc1c[nH]c2ccccc12)C(=O)N[C@@H](CC(C)C)C(=O)N[C@@H](CC(C)C)C(=O)N[C@@H](C)C(=O)NCC(=O)NCC(=O)N[C@@H](CSCCS(=O)(=O)CCN1CCN(CC(=O)O)CCN(CC(=O)O)CCN(CC(=O)O)CC1)C(N)=O)[C@@H](C)CC)[C@@H](C)CC [SEQ ID NO: 5, Y-Aib-EGTFISDLSIALDRIHQEEFIQWLLAGGC(VS-DO3A)-NH2] (H-Y[Aib]EGTFISDLSIALDRIHQEEFIQWLLAGGC(DO3A(CH2CH2SO2CH2CH2))-NH2; N-terminus assumed)
- EC50 [1]: > 10 nM
- potency (ability to activate the human GIP receptor) compared to native GIP or GIP(1-30) [3]: lower potency
- EC50 [2]: > 10 nM

Molecule: SEQ ID NOs: 3 (Y[Aib]EGTFISDLSIALDRIHQEEFIEWLLAGGK(DOTA)-NH2)
- potency (ability to activate the human GIP receptor) compared to native GIP or GIP(1-30) [3]: lower potency

Molecule: Y-Aib-EGTFISDLSIALDRIHQEEFIEWLLAGGK(DOTA(Ga))-NH2 (Y[Aib]EGTFISDLSIALDRIHQEEFIEWLLAGGK(DOTA)-NH2; also: Ga (68Ga) complexed in DOTA on Lys31) [SEQ ID NO: 4]
- potency (ability to activate the human GIP receptor) compared to native GIP or GIP(1-30) [3]: lower potency
- Intact peptide (%) ([4]; 0 min): 99.5%
- Intact peptide (%) ([4]; 15 min): 98.65%
- Intact peptide (%) ([4]; 45 min): 96.31%
- Intact peptide (%) ([4]; 90 min): 92.98%
- radioactive signal arising from intact peptide ([4]; plasma from NHP, after 90 minutes incubation): > 92%

Molecule: hGlucagon (from UniProt P01275 53-81) (ligand)
- EC50 hGIP R, cAMP formation (HTRF), 96-well format (human GIP receptor [5]): > 10000 pM
- EC50 hGIP R, cAMP formation (HTRF), 384-well format (human GIP receptor [5]): > 10000 pM

Molecule: H-Y[Aib]EGTFISDLSIALDRIHQEEFIEWLLAGGK(DOTA)-NH2 (also: Ga3+ complexed in DOTA on Lys31, also called Ga-S02-GIP-T4) [SEQ ID NO: 4 (GIP(1-30) analog with K(DOTA(Ga)) at position 31)]
- IC50 (human GIP receptor [6]): 0.25 nM
- EC50 hGIP R, cAMP formation (HTRF), 96-well format (human GIP receptor [5]): 1.09 pM
- EC50 hGLP-1 R, cAMP formation (HTRF), 96-well format (human GLP-1 receptor): > 10 nM
- EC50 hGCGR, cAMP formation (HTRF), 96-well format (human glucagon receptor): > 10 nM
- fold improvement of binding affinity against GIP(1-30) (human GIP receptor [7]): ~5 fold
- fold improvement of binding affinity against native GIP (human GIP receptor [8]): ~12 fold

B1: SEQ ID NO: 5 (GIP(1-30) analog with C(VS-DO3A) at position 31, unloaded) (peptide)
peptide: Y[Aib]EGTFISDLSIALDRIHQEEFIQWLLAGGC(DO3A(CH2CH2SO2CH2CH2))-NH2
notes: Printed: Y-Aib-EGTFISDLSIALDRIHQEEFIQWLLAGGC(VS-DO3A)-NH2
- IC50 (human GIP receptor [6]): 0.22 nM
- EC50 hGIP R, cAMP formation (HTRF), 384-well format (human GIP receptor [5]): 0.22 pM
- EC50 hGLP-1 R, cAMP formation (HTRF), 384-well format (human GLP-1 receptor): > 10 nM
- EC50 hGCGR, cAMP formation (HTRF), 384-well format (human glucagon receptor): > 10 nM
- fold improvement of binding affinity against GIP(1-30) (human GIP receptor [7]): ~5 fold
- fold improvement of binding affinity against native GIP (human GIP receptor [8]): ~12 fold

Molecule: YAEGTFISDYSIAMDKIHQQDFVNWLLAQK-NH2 (ligand) [GIP(1-30) amide, SEQ ID NO: 2]
- EC50 hGLP-1 R, cAMP formation (HTRF), 96-well format (human GLP-1 receptor): > 10 nM
- EC50 hGCGR, cAMP formation (HTRF), 96-well format (human glucagon receptor): > 10 nM

Molecule: YAEGTFISDYSIAMDKIHQQDFVNWLLAQKGKKNDWKHNITQ-OH (ligand) [GIP (glucose-dependent insulinotropic polypeptide), SEQ ID NO: 1]
- EC50 hGCGR, cAMP formation (HTRF), 96-well format (human glucagon receptor): > 10 nM
- EC50 hGCGR, cAMP formation (HTRF), 384-well format (human glucagon receptor): > 10 nM

Molecule: Y[Aib]EGTFISDLSIALDRIHQEEFIEWLLAGGK(DOTA)-NH2 [SEQ ID NO: 3 (GIP(1-30) analog with K(DOTA) at position 31, unloaded)]
- EC50 hGIP R, cAMP formation (HTRF), 96-well format (human GIP receptor [5]): 1.13 pM
- EC50 hGLP-1 R, cAMP formation (HTRF), 96-well format (human GLP-1 receptor): > 10 nM
- EC50 hGCGR, cAMP formation (HTRF), 96-well format (human glucagon receptor): > 10 nM
